The assay concerns the target SARS-CoV-2 recombinant spike HexaPro protein (SARS-CoV-2) (UniProt P0DTC2). Briefly: SPR. Background: Surface plasmon resonance follows binding to a sensor surface in real time, without labels.

By Kd is commonly meant a measure of binding affinity in units of concentration.

As for “ACE2 monomer construct (SS-ACE2-Linker) (from UniProt Q9BYF1 19-614)”, the dissociation constant Kd was determined as 0.072 µM.

The values above are taken from patent publication US20250367270A1.
